Substrate: O=C(O)C[C@H](O)C(=O)O
Experiment: purified protein
Format: biochemical, Methanocaldococcus jannaschii
Conditions: pH 7.2, 50 mM Tris-HCl, 70 °C

B1: MjFH (MjFHαβ), holo, Fe-S reconstituted (Methanocaldococcus jannaschii DSM 2661) (protein)
chain 1: MKISDVVVELFREAAIYLPEDVKNALEEAYKKESSEISKNTLKAIIENNKIAEETQVPLCQDTGVPIVFLKIGKNINSSEIMKIIEEIKEGVKKATEEVPLRPNVVHPLTRENFKTNVGLNSPFINIEFDESLDREIEIIAFPKGAGSENMSALKMLKPSDGIEGIKNFVLETIANAGGKPCPPIVVGIGIGGTADVALKLAKKALLRKIGERHRDKEIANLEKELLEKINSLGIGAMGLGGDITALDVFIEIAGCHTASLPVGICIQCWADRRAIKRIKLDAKL
chain 2: MEYTFNKLTKKDVKKLKVGDIVYLNGKIYTARDEAHLKIIEMLKSNEKLPFDLNESIIYHAGPIMKKVNDSWVCVSIGPTTSARMNDVEEEFIKLTNISAIVGKGGMKKELLKTFEDYGVVYLAAPGGCAALLANSVKRVDNVYFLDELGMPEAVWELEVNNFGPLIVAMDSHGNSIYEEVNKKVYEKLNELIGL
B1 was tested, and the Km was 1554 ± 169 µM.

— article doi:10.1101/2022.09.03.506457v1
